Test results published in article PMC10397247.

Assays:
Test in all cases: two-hybrid library CCNG1;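 also: natural log of median RNA to DNA barcode read ratio; higher means stronger binding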
4H2444-bN = molecular target: T1, 4H2444-bN
T1 chain: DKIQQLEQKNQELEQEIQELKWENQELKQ

4H2518-bN = molecular target: T2, 4H2518-bN
T2 chain: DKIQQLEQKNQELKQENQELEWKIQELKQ

4H2585-bN = molecular target: T3, 4H2585-bN
T3 chain: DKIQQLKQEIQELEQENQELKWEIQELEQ

4H264-bN = molecular target: T4, 4H264-bN
T4 chain: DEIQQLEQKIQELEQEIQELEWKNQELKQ

4H2760-bN = molecular target: T5, 4H2760-bN
T5 chain: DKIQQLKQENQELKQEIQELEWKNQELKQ

4H2859-bN = molecular target: T6, 4H2859-bN
T6 chain: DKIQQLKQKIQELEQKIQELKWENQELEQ

4H2931-bN = molecular target: T7, 4H2931-bN
T7 chain: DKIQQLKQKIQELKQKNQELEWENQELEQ

4H3041-bN = molecular target: T8, 4H3041-bN
T8 chain: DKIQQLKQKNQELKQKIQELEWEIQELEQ

4H3297-bN = molecular target: T9, 4H3297-bN
T9 chain: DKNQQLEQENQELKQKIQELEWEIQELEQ

4H3364-bN = molecular target: T10, 4H3364-bN
T10 chain: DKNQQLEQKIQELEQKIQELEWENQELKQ

4H3381-bN = molecular target: T11, 4H3381-bN
T11 chain: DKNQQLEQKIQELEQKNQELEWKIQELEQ

4H349-bN = molecular target: T12, 4H349-bN
T12 chain: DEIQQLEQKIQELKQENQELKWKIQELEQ

4H56-bN = molecular target: T13, 4H56-bN
T13 chain: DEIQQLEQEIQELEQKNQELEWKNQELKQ

4H730-bN = molecular target: T14, 4H730-bN
T14 chain: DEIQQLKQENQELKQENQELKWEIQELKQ

4H796-bN = molecular target: T15, 4H796-bN
T15 chain: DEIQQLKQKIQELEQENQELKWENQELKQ

4H932-bN = molecular target: T16, 4H932-bN
T16 chain: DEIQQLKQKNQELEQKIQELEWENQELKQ

4H949-bN = molecular target: T17, 4H949-bN
T17 chain: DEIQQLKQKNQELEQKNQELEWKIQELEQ

P3A-bN = molecular target: T18, P3A-bN
T18 chain: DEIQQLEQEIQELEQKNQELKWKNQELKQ

P4A-bN = molecular target: T19, P4A-bN
T19 chain: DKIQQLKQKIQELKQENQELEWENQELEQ

P5A-bN = molecular target: T20, P5A-bN
T20 chain: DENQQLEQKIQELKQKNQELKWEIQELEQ

P5A = molecular target: T21, P5A
T21 chain: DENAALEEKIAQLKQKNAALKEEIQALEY

P6A-bN = molecular target: T22, P6A-bN
T22 chain: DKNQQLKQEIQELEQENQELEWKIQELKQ

P7A-bN = molecular target: T23, P7A-bN
T23 chain: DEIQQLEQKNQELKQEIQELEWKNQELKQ

P8A-bN = molecular target: T24, P8A-bN
T24 chain: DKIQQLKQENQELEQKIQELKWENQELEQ

P9A-bN = molecular target: T25, P9A-bN
T25 chain: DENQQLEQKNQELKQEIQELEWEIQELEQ

4H235-bN = molecular target: T26, 4H235-bN
T26 chain: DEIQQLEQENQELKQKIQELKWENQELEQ

4H1544-bA = molecular target: T27, 4H1544-bA
T27 chain: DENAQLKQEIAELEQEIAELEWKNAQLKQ

4H1710-bA = molecular target: T28, 4H1710-bA
T28 chain: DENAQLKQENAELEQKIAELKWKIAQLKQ

4H1899-bA = molecular target: T29, 4H1899-bA
T29 chain: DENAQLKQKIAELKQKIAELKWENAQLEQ

4H1985-bA = molecular target: T30, 4H1985-bA
T30 chain: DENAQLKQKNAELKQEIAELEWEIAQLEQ

4H3162-bA = molecular target: T31, 4H3162-bA
T31 chain: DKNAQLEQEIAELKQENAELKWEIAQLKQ

4H3175-bA = molecular target: T32, 4H3175-bA
T32 chain: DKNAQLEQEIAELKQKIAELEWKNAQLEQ

4H3277-bA = molecular target: T33, 4H3277-bA
T33 chain: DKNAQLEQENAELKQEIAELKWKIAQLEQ

4H3298-bA = molecular target: T34, 4H3298-bA
T34 chain: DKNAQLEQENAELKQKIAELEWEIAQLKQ

4H3462-bA = molecular target: T35, 4H3462-bA
T35 chain: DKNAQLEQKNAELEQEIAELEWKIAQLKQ

4H3497-bA = molecular target: T36, 4H3497-bA
T36 chain: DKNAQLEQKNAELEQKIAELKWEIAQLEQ

4H3613-bA = molecular target: T37, 4H3613-bA
T37 chain: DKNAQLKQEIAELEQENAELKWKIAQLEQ

4H3628-bA = molecular target: T38, 4H3628-bA
T38 chain: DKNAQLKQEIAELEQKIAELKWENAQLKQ

4H3817-bA = molecular target: T39, 4H3817-bA
T39 chain: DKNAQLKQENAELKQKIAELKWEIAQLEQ

4H3858-bA = molecular target: T40, 4H3858-bA
T40 chain: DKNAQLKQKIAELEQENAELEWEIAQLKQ

4H3926-bA = molecular target: T41, 4H3926-bA
T41 chain: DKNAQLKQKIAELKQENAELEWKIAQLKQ

4H3974-bA = molecular target: T42, 4H3974-bA
T42 chain: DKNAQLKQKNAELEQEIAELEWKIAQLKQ

4H570-bA = molecular target: T43, 4H570-bA
T43 chain: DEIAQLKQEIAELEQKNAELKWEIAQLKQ

4H591-bA = molecular target: T44, 4H591-bA
T44 chain: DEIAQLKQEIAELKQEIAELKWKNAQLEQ

4H626-bA = molecular target: T45, 4H626-bA
T45 chain: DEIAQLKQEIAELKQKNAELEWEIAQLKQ

4H850-bA = molecular target: T46, 4H850-bA
T46 chain: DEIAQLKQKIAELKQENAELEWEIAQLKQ

4H906-bA = molecular target: T47, 4H906-bA
T47 chain: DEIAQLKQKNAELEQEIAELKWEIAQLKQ

P3A-bS = molecular target: T48, P3A-bS
T48 chain: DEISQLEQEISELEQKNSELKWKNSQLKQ

P4A-bS = molecular target: T49, P4A-bS
T49 chain: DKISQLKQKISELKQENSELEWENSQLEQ

P5A-bS = molecular target: T50, P5A-bS
T50 chain: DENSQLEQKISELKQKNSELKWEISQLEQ

P7A-bS = molecular target: T51, P7A-bS
T51 chain: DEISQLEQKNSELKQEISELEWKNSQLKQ

P8A-bS = molecular target: T52, P8A-bS
T52 chain: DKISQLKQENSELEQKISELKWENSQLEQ

P9A-bS = molecular target: T53, P9A-bS
T53 chain: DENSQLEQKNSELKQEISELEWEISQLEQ

P5SHb = molecular target: T54, P5SHb
T54 chain: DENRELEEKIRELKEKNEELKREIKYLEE

P6SHb = molecular target: T55, P6SHb
T55 chain: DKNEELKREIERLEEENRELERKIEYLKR

P7SHb = molecular target: T56, P7SHb
T56 chain: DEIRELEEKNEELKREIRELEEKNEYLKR

P8SHb = molecular target: T57, P8SHb
T57 chain: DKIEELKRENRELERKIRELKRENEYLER

P9SHb = molecular target: T58, P9SHb
T58 chain: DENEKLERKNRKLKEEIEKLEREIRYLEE

P4SHb = molecular target: T59, P4SHb
T59 chain: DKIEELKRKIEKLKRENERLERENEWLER

DKIQQLEQKNQELEQEIQELKWENQELKQ [4H2444-bN]
interaction score (4H2444-bN): 1.34 | interaction score (4H2518-bN): -0.0731 | interaction score (4H2585-bN): -0.578 | interaction score (4H264-bN): 0.471 | interaction score (4H2760-bN): -0.126 | interaction score (4H2859-bN): 0.194 | interaction score (4H2931-bN): -0.103 | interaction score (4H3041-bN): 0.447 | interaction score (4H3297-bN): -0.0483 | interaction score (4H3364-bN): -0.17 | interaction score (4H3381-bN): 0.0258 | interaction score (4H349-bN): -0.375 | interaction score (4H56-bN): 0.273 | interaction score (4H730-bN): -0.506 | interaction score (4H796-bN): -0.0985 | interaction score (4H932-bN): 0.018 | interaction score (4H949-bN): -0.477

DKIQQLKQKNQELKQKNQELKWKIQELKQ [P2A-bN]
interaction score (P3A-bN): -1.27 | interaction score (P4A-bN): -0.0603 | interaction score (P5A-bN): -0.834 | interaction score (P5A): -1.29 | interaction score (P6A-bN): -0.329 | interaction score (P7A-bN): -2.31 | interaction score (P8A-bN): -0.172 | interaction score (P9A-bN): -0.223

DEIQQLEQEIQELEQKNQELKWKNQELKQ [P3A-bN]
interaction score (P3A-bN): -0.693 | interaction score (P4A-bN): 1.79 | interaction score (P5A-bN): -1.91 | interaction score (P6A-bN): 0.0905 | interaction score (P7A-bN): 0.502 | interaction score (P8A-bN): -0.0492 | interaction score (P9A-bN): 0.0484

DEIQQLEQENQELKQKIQELKWENQELEQ [4H235-bN]
interaction score (4H235-bN): 0.562 | interaction score (4H2444-bN): -0.884 | interaction score (4H2518-bN): -0.299 | interaction score (4H2585-bN): -0.77 | interaction score (4H264-bN): -0.206 | interaction score (4H2760-bN): 2.03 | interaction score (4H2859-bN): 0.00948 | interaction score (4H2931-bN): -1.14 | interaction score (4H3041-bN): -0.319 | interaction score (4H3297-bN): -0.527 | interaction score (4H3364-bN): 0.709 | interaction score (4H3381-bN): -1.48 | interaction score (4H349-bN): -0.0107 | interaction score (4H56-bN): -0.626 | interaction score (4H730-bN): -1.94 | interaction score (4H796-bN): -0.458 | interaction score (4H932-bN): -0.682 | interaction score (4H949-bN): -0.438

DENAQLKQEIAELEQEIAELEWKNAQLKQ [4H1544-bA]
interaction score (4H1544-bA): 0.00288 | interaction score (4H1710-bA): 2.06 | interaction score (4H1899-bA): 1.52 | interaction score (4H1985-bA): 0.274 | interaction score (4H3162-bA): 0.788 | interaction score (4H3175-bA): -0.0402 | interaction score (4H3277-bA): 0.243 | interaction score (4H3298-bA): 0.792 | interaction score (4H3462-bA): 0.455 | interaction score (4H3497-bA): 0.215 | interaction score (4H3613-bA): 0.572 | interaction score (4H3628-bA): 0.77 | interaction score (4H3817-bA): 0.78 | interaction score (4H3858-bA): -0.357 | interaction score (4H3926-bA): 0.0381 | interaction score (4H3974-bA): 0.562 | interaction score (4H570-bA): -0.0902 | interaction score (4H591-bA): -0.632 | interaction score (4H626-bA): -0.46 | interaction score (4H850-bA): 0.322 | interaction score (4H906-bA): -0.806

DEISQLEQEISELEQKNSELKWKNSQLKQ [P3A-bS]
interaction score (P3A-bS): -1.29 | interaction score (P4A-bS): 1.45 | interaction score (P5A-bS): -0.938 | interaction score (P7A-bS): -0.377 | interaction score (P8A-bS): -0.303 | interaction score (P9A-bS): 0.297

DEIQQLEQENQELEQENQELEWEIQELEQ [P1A-bN]
interaction score (P3A-bN): -1.29 | interaction score (P4A-bN): -0.418 | interaction score (P5A-bN): -0.827 | interaction score (P6A-bN): -0.545 | interaction score (P7A-bN): -1.2 | interaction score (P8A-bN): -0.492 | interaction score (P9A-bN): -2.46

DENQQLEQKIQELKQKNQELKWEIQELEQ [P5A-bN]
interaction score (P5A-bN): -1.81 | interaction score (P6A-bN): 1.62 | interaction score (P7A-bN): -1.53 | interaction score (P8A-bN): -0.311 | interaction score (P9A-bN): -1.14

DENRELEEKIRELKEKNEELKREIKYLEE [P5SHb]
interaction score (P5SHb): -0.373 | interaction score (P6SHb): 1.24 | interaction score (P7SHb): -0.193 | interaction score (P8SHb): 0.218 | interaction score (P9SHb): -0.0948

DKIEELKRKIEKLKRENERLERENEWLER [P4SHb]
interaction score (P4SHb): -0.574 | interaction score (P5SHb): -0.773 | interaction score (P6SHb): 0.8 | interaction score (P7SHb): -1.05 | interaction score (P8SHb): -1.17 | interaction score (P9SHb): 0.746
